These results are taken from patent US20190382474A1 (SURFACE ONCOLOGY, published 2019).

The target in experiment [1] is T1, recombinant human IL-27 (human, UniProt Q14213 21-229; Q8NEV9 29-243).
T1 construct: Bought from R&D Systems (Cat. 2526-IL); also called hIL-27; rhIL-27
T1 sequence 1: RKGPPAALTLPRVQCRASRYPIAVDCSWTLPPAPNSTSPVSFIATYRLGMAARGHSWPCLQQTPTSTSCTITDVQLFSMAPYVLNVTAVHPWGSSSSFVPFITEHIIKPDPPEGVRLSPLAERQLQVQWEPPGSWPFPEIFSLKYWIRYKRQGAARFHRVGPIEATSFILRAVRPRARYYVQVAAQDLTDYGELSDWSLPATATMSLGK
T1 sequence 2: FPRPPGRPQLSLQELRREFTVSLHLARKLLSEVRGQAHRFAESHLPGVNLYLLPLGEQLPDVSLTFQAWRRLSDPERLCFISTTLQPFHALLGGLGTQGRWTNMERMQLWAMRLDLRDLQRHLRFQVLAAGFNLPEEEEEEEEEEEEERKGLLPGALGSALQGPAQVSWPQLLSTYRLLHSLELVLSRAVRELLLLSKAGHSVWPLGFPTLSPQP
Briefly: column 'Affinity hIL-27 (M)', property (i); method not given, paragraph 885 names SPR (BIACORE 2000). (In general: In SPR one partner is held on a chip, and binding of the other changes the refractive index at the surface.)

In experiment [2] the target is T1, recombinant human IL-27. Briefly: SPR (BIACORE 2000) as the paragraph says; values in FIG. 9.
The target in experiment [3] is T2, recombinant mouse IL-27 (mouse, UniProt O35228 19-228; Q8K3I6 29-234, limits assumed).
T2 construct: also called rodent recombinant IL-27
T2 sequence (looked up) 1: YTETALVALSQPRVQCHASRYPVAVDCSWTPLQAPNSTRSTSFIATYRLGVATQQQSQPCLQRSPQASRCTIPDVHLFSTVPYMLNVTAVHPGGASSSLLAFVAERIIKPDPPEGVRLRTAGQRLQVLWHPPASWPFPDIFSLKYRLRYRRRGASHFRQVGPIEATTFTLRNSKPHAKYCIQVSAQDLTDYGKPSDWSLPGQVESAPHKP
T2 sequence (looked up) 2: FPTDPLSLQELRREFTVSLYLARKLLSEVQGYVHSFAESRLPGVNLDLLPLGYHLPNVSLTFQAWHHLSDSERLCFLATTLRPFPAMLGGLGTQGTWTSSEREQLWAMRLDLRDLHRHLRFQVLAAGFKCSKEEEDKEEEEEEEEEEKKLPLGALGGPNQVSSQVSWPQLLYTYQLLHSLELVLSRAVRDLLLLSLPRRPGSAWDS
Briefly: column 'Affinity mIL-27 (M)'; method not given.

Experiment [4] addresses T1, recombinant human IL-27. Briefly: SPR single cycle kinetics, 1:1 model. On the procedure: The antibodies were further characterized by surface plasmon resonance (SPR). Kinetic experiments were performed on a Biacore T200 (GE Healthcare, Uppsala, Sweden). All experiments were run at 25° C. with HBS-P+ running buffer (pH 7.4) (GE Healthcare, Little Chalfont, UK) using hIL-27 (R&D Systems, Abingdon, UK). Human IL-27 (hIL-27) antigen was captured on a CM5 chip to ˜16 RU. Immobilization was carried out at a protein concentration of 1 μg/mL in 10 mM acetate buffer pH 5.0. A three point, three-fold dilution range from 3.3 nM to 30 nM of antibody diluted in HBS-P+ buffer without regeneration between each concentration was used. The association phase for the three injections of increasing concentrations of antibody was monitored for 75 seconds each time and a single dissociation phase was measured for 250 seconds following the last injection of antibody. Regeneration of the hIL-27 surface was conducted using a single injection of 2M MgCl₂ for 120 s. Multiple repeats (n=4) of the chimeric antibody were performed throughout the assay to check the stability of the surface and analyte over the kinetic cycles.

For experiment [5], the target named is T1, recombinant human IL-27. Briefly: SPR (Biacore T200), hIL-27 on CM5 chip, single cycle kinetics.
Experiment [6] concerns the target T1, recombinant human IL-27. Briefly: cell-based or functional assay.

B1: SRF538 (antibody, V domains shown)
VH: QVQLVESGGGVVQPGRSLRLSCAASGFTFSSYGMHWVRQAPGKGLEWVAVIWYDGSNKYYADSVKGRFTISRDNSKNTLYLQMNSLRAEDTAVYYCARGAPEYVDVWGQGTMVTVSS
VL: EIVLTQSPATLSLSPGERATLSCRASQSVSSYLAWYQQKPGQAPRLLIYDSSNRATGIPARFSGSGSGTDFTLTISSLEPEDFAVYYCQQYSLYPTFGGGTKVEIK
notes: also called SRF538-A; SRF538-B
As usually defined, the Kd is a measure of binding affinity in units of concentration. For B1, the dissociation constant (Kd) in experiment [1] was 8.93 nM; in experiment [2], at most 15 nM; in experiment [3], 182 nM.

B2: Ab7.6 (antibody, human IgG1, kappa, V domains shown)
VH: EVKLVESGGGLVQPGGSLRLSCAASGFTFTSYSMSWVRQAPGKGLEWVAYISYDGGSAYYPDTVKGRFTISRDNSKKTLYLQMSSLKSEDTAMYYCARHGDYDDDDAMDYWGQGTSVTVSS
VL: DIQMTQSPSSLSASVGDRVTITCRASENIYSYLAWYQQKPGKAPKLLVYNAETLTEGVPSRFSGSGSGTDFTLTISSLQPEDFATYYCQHHYGTPLTFGQGTKLEIKR
notes: human IgG1/kappa
In the case of B2, the binding result in experiment [4] was “binds”.

B3: Ab7.11 (antibody, human IgG1, kappa, V domains shown)
VH: EVQLVESGGGLVQPGGSLRLSCAASGFTFTSYSMSWVRQAPGKGLEWVAYISYDGGSAYYPDTVKGRFTISRDNSKNTLYLQMSSLKSEDTAMYYCARHGDYDDDDAMDYWGQGTLVTVSS
VL: DIQMTQSPSSLSASVGDRVTITCRASENIYSYLNWYQQKPGKAPKLLVYNAETLTEGVPSRFSGSGSGTDFTLTISSLQPEDFATYYCQHHYGTPLTFGQGTKLEIKR
notes: human IgG1/kappa; also called Ab7-VL4 humanized variant
For B3, the binding result in experiment [5] is reported as “no binding (tested: 3.3 nM to 30 nM of antibody)”.

B4: Ab7.15 (antibody, human IgG1, kappa, V domains shown)
VH: EVKLVESGGGLVQPGGSLRLSCAASGFTFTSYSMSWVRQAPGKGLEWVAYISYDGGSAYYPDTVKGRFTISRDNSKKTLYLQMNSLRAEDTAVYYCARHGDYDDDDAMDYWGQGTLVTVSS
VL: DIQMTQSPSSLSASVGDRVTITCRASENIYSYLNWYQQKPGKAPKLLVYNAETLTEGVPSRFSGSGSGTDFTLTISSLQPEDFATYYCQHHYGTPLTFGQGTKLEIKR
notes: as for B3
On to B4, for which, in experiment [5], the binding result is given as “no binding (tested: 3.3 nM to 30 nM of antibody)”.

B5: Ab7.23 (antibody, human IgG1, kappa, V domains shown)
VH: EVQLVESGGGLVQPGGSLRLSCAASGFTFTSYSMSWVRQAPGKGLEWVSYISYDGGSAYYPDTVKGRFTISRDNSKNTLYLQMNSLRAEDTAVYYCARHGDYDDDDAMDYWGQGTLVTVSS
VL: DIQMTQSPSSLSASVGDRVTITCRASENIYSYLNWYQQKPGKAPKLLVYNAETLTEGVPSRFSGSGSGTDFTLTISSLQPEDFATYYCQHHYGTPLTFGQGTKLEIKR
notes: as for B3
Take B5: the binding result in experiment [5] is on record as “no binding (tested: 3.3 nM to 30 nM of antibody)”.

B6: Ab7.19 (antibody, human IgG1, kappa, V domains shown)
VH: EVQLVESGGGLVQPGGSLRLSCAASGFTFTSYSMSWVRQAPGKGLEWVAYISYDGGSAYYPDTVKGRFTISRDNSKNTLYLQMNSLRAEDTAVYYCARHGDYDDDDAMDYWGQGTLVTVSS
VL: DIQMTQSPSSLSASVGDRVTITCRASENIYSYLNWYQQKPGKAPKLLVYNAETLTEGVPSRFSGSGSGTDFTLTISSLQPEDFATYYCQHHYGTPLTFGQGTKLEIKR
notes: as for B3
As for B6, the binding result in experiment [5] is given as “no binding (tested: 3.3 nM to 30 nM of antibody)”.

B7: Ab7.7 (antibody, human IgG1, kappa, V domains shown)
VH: EVKLVESGGGLVQPGGSLRLSCAASGFTFTSYSMSWVRQAPGKGLEWVAYISYDGGSAYYPDTVKGRFTISRDNSKKTLYLQMSSLKSEDTAMYYCARHGDYDDDDAMDYWGQGTSVTVSS
VL: DIQMTQSPSSLSASVGDRVTITCRASENIYSYLNWYQQKPGKAPKLLVYNAETLTEGVPSRFSGSGSGTDFTLTISSLQPEDFATYYCQHHYGTPLTFGQGTKLEIKR
notes: as for B3
B7: the binding result in experiment [5] was “no binding (tested: 3.3 nM to 30 nM of antibody)”.

B8: SRF381 (antibody, V domains shown)
VH: EVQLVESGGGLVKPGGSLRLSCAASGFTFRSYGMNWVRQAPGKGLEWVSSISSSSSYIYYADSVKGRFTISRDNAKNSLYLQMNSLRAEDTAVYYCARDGGRTSYTATAHNWFDPWGQGTLVTVSS
VL: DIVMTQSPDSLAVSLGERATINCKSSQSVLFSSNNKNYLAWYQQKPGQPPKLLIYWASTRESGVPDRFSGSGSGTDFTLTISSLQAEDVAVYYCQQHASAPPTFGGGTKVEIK
notes: also called SRF381-A; SRF381-B
In the case of B8, in experiment [6], the “IC50 of inhibition of phosphorylation of STAT1 in HUT-78 cells” value was 0.08 µg/mL, the “IC50 of inhibition of phosphorylation of STAT1 in U937 cells” value was found to be 0.081 µg/mL and the “IC50 of inhibition of phosphorylation of STAT1 in pooled human PBMCs” value was 0.141 µg/mL. Also, the Kd in experiment [1] was 0.0028 nM. Further, the Kd in experiment [3] was 0.456 nM.

B9: SRF386 (antibody, V domains shown)
VH: EVQLVESGGGLVKPGGSLRLSCAASGFTFASYGMNWVRQAPGKGLEWVSSISSSSSYIYYADSVKGRFTISRDNAKNSLYLQMNSLRAEDTAVYYCARDGGRTSYTATAHNWFDPWGQGTLVTVSS
VL: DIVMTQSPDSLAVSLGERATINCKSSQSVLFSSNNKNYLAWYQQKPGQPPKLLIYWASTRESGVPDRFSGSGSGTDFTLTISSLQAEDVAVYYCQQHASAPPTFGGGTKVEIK
notes: also called SRF386-A; SRF386-B
For the molecule B9, the Kd in experiment [1] was 0.0034 nM; in experiment [2] it was at most 15 nM; in experiment [3], 1.75 nM.

B10: SRF535 (antibody, V domains shown)
VH: EVQLVESGGGLVQPGGSLRLSCAASGFTFSSYGMSWVRQAPGKGLEWVANIKQDGSEKYYVDSVKGRFTISRDNAKNSLYLQMNSLRAEDTAVYYCARDAPWDIYDYYMDVWGKGTTVTVSS
VL: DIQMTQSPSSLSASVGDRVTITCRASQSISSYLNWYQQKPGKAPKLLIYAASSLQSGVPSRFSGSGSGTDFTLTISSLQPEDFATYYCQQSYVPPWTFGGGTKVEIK
notes: also called SRF535-A; SRF535-B
Regarding B10, the dissociation constant (Kd) in experiment [1] was 11.5 nM; in experiment [2], at most 15 nM. Moreover, the binding result in experiment [3] was “no binding”.

B11: SRF410 (antibody, V domains shown)
VH: QVQLVQSGAEVKKPGSSVKVSCKASGGTFSAYAISWVRQAPGQGLEWMGGIIPIFGTANYAQKFQGRVTITADESTSTAYMELSSLRSEDTAVYYCARSYYSSRWHYYYYMDVWGKGTTVTVSS
VL: DIQMTQSPSSVSASVGDRVTITCRASQGISSWLAWYQQKPGKAPKLLIYAASNLQSGVPSRFSGSGSGTDFTLTISSLQPEDFATYYCQQADDLPLTFGGGTKVEIK
notes: also called SRF410-A; SRF410-B
For B11, the values for the Kd in experiment [1], in experiment [2] and in experiment [3] were 0.39 nM, at most 15 nM and 5.81 nM, respectively.

B12: SRF405 (antibody, V domains shown)
VH: QVQLVQSGAEVKKPGSSVKVSCKASGGTFVGYAISWVRQAPGQGLEWMGGIIPIFGIANYAQKFQGRVTITADESTSTAYMELSSLRSEDTAVYYCARSYYSSRWHYYYYMDVWGKGTTVTVSS
VL: DIQMTQSPSSVSASVGDRVTITCRASQGISSWLAWYQQKPGKAPKLLIYAASNLQSGVPSRFSGSGSGTDFTLTISSLQPEDFATYYCQQADDLPLTFGGGTKVEIK
notes: also called SRF405-A; SRF405-B
Regarding B12, the Kd is 0.1 nM in experiment [1], at most 15 nM in experiment [2] and 5.02 nM in experiment [3].

B13: SRF411 (antibody, V domains shown)
VH: QVQLVQSGAEVKKPGSSVKVSCKASGGTFESYTISWVRQAPGQGLEWMGGIAPIFGTAHYAQKFQGRVTITADESTSTAYMELSSLRSEDTAVYYCARSYYSSRWHYYYYMDVWGKGTTVTVSS
VL: DIQMTQSPSSVSASVGDRVTITCRASQGISSWLAWYQQKPGKAPKLLIYAASNLQSGVPSRFSGSGSGTDFTLTISSLQPEDFATYYCQQADDLPLTFGGGTKVEIK
notes: also called SRF411-A; SRF411-B
Regarding B13, the Kd in experiment [1] is 0.43 nM; in experiment [2], at most 15 nM; in experiment [3], 0.546 nM.
